Assay results taken from article PMC2925305 (Journal of Nucleic Acids, 2010).
One block for each molecule: values may come before it.

Assays:
[1] = molecular target: SUMO-1-GST-TDG (SUMO-1-conjugated GST-TDG) (UniProt Q13569); assay: pull-down; GST pull-down: 10 nM GST or GST-fusion protein and 10 nM XPC-RAD23B with 20 ul glutathione-Sepharose in 100 ul binding buffer (20 mM sodium phosphate pH 7.4, 1 mM EDTA, 150 mM NaCl, 1 mM DTT, 5% glycerol, 0.01% Triton X-100, 100 ug/ml BSA), on ice 1 hour, eight washes, elution with 10 mM glutathione; immunoblot with anti-XPC and anti-GST
[2] = molecular target: SUMO-1-GST-TDG (SUMO-1-conjugated GST-TDG) (UniProt Q13569)
[3] = molecular target: T1, GST-SMUG1 (GST-fused SMUG1) (UniProt Q53HV7 1-270); assay: cell-based or functional assay
T1 sequence (looked up): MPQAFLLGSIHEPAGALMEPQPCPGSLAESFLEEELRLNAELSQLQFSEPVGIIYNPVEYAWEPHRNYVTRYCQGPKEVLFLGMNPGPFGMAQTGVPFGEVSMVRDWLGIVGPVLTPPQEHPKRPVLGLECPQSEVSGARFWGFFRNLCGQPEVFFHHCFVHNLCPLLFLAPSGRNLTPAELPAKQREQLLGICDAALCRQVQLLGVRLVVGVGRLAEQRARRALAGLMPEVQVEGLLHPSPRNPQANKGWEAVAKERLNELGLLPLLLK

[4] = molecular target: GST-TDG (thymine DNA glycosylase fused to glutathione S-transferase, nonmodified) (human, UniProt Q13569 1-410); assay: cell-based or functional assay
[5] = molecular target: T2, XPC (recombinant human XPC, alone) (human, UniProt Q01831 1-940); assay: in vitro reconstitution of the heterodimer; XPC-RAD23B-His heterodimer reconstituted in vitro from purified recombinant XPC and RAD23B-His, as described previously [17]; details: both partners purified
T2 sequence (looked up): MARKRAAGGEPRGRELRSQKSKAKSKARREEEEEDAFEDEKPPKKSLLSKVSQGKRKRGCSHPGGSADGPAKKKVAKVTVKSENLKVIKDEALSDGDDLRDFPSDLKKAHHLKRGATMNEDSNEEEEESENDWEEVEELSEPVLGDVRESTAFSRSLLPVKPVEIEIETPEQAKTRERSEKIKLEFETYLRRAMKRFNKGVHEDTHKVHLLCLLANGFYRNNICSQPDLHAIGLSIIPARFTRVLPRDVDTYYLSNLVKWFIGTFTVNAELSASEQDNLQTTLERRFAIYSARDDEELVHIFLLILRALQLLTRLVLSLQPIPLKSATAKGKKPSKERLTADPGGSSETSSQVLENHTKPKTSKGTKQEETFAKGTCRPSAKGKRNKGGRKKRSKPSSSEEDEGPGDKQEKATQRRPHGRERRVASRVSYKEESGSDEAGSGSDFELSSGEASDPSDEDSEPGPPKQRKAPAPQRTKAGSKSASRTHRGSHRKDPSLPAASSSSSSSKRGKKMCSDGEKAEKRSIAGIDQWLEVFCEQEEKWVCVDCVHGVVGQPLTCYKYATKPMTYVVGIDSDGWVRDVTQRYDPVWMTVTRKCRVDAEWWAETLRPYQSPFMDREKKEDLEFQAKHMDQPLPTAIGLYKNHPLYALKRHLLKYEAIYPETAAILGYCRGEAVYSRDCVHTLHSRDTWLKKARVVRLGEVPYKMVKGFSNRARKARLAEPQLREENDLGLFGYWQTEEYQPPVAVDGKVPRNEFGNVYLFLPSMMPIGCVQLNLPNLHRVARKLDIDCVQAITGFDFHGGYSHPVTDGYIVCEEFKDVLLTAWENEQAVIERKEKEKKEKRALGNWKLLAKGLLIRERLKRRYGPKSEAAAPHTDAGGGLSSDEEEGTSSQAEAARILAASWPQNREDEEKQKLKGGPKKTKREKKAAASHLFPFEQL

Sequence of GST-TDG (thymine DNA glycosylase fused to glutathione S-transferase, nonmodified) (Q13569 whole entry, the tested form may be a part): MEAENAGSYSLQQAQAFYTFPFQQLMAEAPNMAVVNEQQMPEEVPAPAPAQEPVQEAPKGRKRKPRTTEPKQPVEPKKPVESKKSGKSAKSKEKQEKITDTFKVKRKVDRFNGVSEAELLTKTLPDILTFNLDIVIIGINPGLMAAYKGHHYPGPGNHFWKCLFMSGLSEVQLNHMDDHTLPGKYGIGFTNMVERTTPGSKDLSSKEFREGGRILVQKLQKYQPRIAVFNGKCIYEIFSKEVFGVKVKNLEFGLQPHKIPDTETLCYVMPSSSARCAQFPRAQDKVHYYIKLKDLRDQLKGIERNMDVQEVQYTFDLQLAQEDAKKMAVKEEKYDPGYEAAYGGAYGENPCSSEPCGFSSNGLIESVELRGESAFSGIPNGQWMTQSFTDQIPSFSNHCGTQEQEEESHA

fold more XPC bound than to nonmodified GST-TDG [1]: 2 fold | stimulation by XPC-RAD23B (up to 4 nM, dose-dependent) of uracil excision from G/U mismatch DNA (1.6 nM) by 2 nM SUMO-1-conjugated His-TDG, nicking assay, 120 minutes [2]: 5 fold
Molecule: XPC-RAD23B-His heterodimer (from UniProt Q01831 1-940; P54727 1-409) (complex)

stimulation by XPC-RAD23B (up to 2 nM, dose-dependent) of uracil excision from 60-bp G/U mismatch DNA (1.6 nM) by 2.5 pM SMUG1, nicking assay, 120 minutes [3]: 4 fold | stimulation by XPC-RAD23B (various concentrations) of uracil excision from a 60-bp G/U mismatch DNA (1.6 nM) by 0.42 nM His-TDG, nicking assay, 30°C [4]: 5 fold
B1: XPC-RAD23B-His heterodimer (complex, human)
chain 1: MARKRAAGGEPRGRELRSQKSKAKSKARREEEEEDAFEDEKPPKKSLLSKVSQGKRKRGCSHPGGSADGPAKKKVAKVTVKSENLKVIKDEALSDGDDLRDFPSDLKKAHHLKRGATMNEDSNEEEEESENDWEEVEELSEPVLGDVRESTAFSRSLLPVKPVEIEIETPEQAKTRERSEKIKLEFETYLRRAMKRFNKGVHEDTHKVHLLCLLANGFYRNNICSQPDLHAIGLSIIPARFTRVLPRDVDTYYLSNLVKWFIGTFTVNAELSASEQDNLQTTLERRFAIYSARDDEELVHIFLLILRALQLLTRLVLSLQPIPLKSATAKGKKPSKERLTADPGGSSETSSQVLENHTKPKTSKGTKQEETFAKGTCRPSAKGKRNKGGRKKRSKPSSSEEDEGPGDKQEKATQRRPHGRERRVASRVSYKEESGSDEAGSGSDFELSSGEASDPSDEDSEPGPPKQRKAPAPQRTKAGSKSASRTHRGSHRKDPSLPAASSSSSSSKRGKKMCSDGEKAEKRSIAGIDQWLEVFCEQEEKWVCVDCVHGVVGQPLTCYKYATKPMTYVVGIDSDGWVRDVTQRYDPVWMTVTRKCRVDAEWWAETLRPYQSPFMDREKKEDLEFQAKHMDQPLPTAIGLYKNHPLYALKRHLLKYEAIYPETAAILGYCRGEAVYSRDCVHTLHSRDTWLKKARVVRLGEVPYKMVKGFSNRARKARLAEPQLREENDLGLFGYWQTEEYQPPVAVDGKVPRNEFGNVYLFLPSMMPIGCVQLNLPNLHRVARKLDIDCVQAITGFDFHGGYSHPVTDGYIVCEEFKDVLLTAWENEQAVIERKEKEKKEKRALGNWKLLAKGLLIRERLKRRYGPKSEAAAPHTDAGGGLSSDEEEGTSSQAEAARILAASWPQNREDEEKQKLKGGPKKTKREKKAAASHLFPFEQL
chain 2: MQVTLKTLQQQTFKIDIDPEETVKALKEKIESEKGKDAFPVAGQKLIYAGKILNDDTALKEYKIDEKNFVVVMVTKPKAVSTPAPATTQQSAPASTTAVTSSTTTTVAQAPTPVPALAPTSTPASITPASATASSEPAPASAAKQEKPAEKPAETPVATSPTATDSTSGDSSRSNLFEDATSALVTGQSYENMVTEIMSMGYEREQVIAALRASFNNPDRAVEYLLMGIPGDRESQAVVDPPQAASTGAPQSSAVAAAAATTTATTTTTSSGGHPLEFLRNQPQFQQMRQIIQQNPSLLPALLQQIGRENPQLLQQISQHQEHFIQMLNEPVQEAGGQGGGGGGGSGGIAEAGSGHMNYIQVTPQEKEAIERLKALGFPEGLVIQAYFACEKNENLAANFLLQQNFDED

binding result [5]: binds
B2: His-tagged RAD23B (RAD23B-His) (natural protein, human, UniProt P54727 1-409, looked up)
chain: MQVTLKTLQQQTFKIDIDPEETVKALKEKIESEKGKDAFPVAGQKLIYAGKILNDDTALKEYKIDEKNFVVVMVTKPKAVSTPAPATTQQSAPASTTAVTSSTTTTVAQAPTPVPALAPTSTPASITPASATASSEPAPASAAKQEKPAEKPAETPVATSPTATDSTSGDSSRSNLFEDATSALVTGQSYENMVTEIMSMGYEREQVIAALRASFNNPDRAVEYLLMGIPGDRESQAVVDPPQAASTGAPQSSAVAAAAATTTATTTTTSSGGHPLEFLRNQPQFQQMRQIIQQNPSLLPALLQQIGRENPQLLQQISQHQEHFIQMLNEPVQEAGGQGGGGGGGSGGIAEAGSGHMNYIQVTPQEKEAIERLKALGFPEGLVIQAYFACEKNENLAANFLLQQNFDED
